PMC5952411 (EBioMedicine, 2018)
Where a chain is given by its changes, count along the chain named.

B1: Pup^E (prokaryotic ubiquitin-like protein Pup with its C-terminal glutamine converted to glutamate), biotinylated (natural protein)
chain: MAQEQTKRGGGGGDDDDIAGSTAAGQERREKLTEETDDLLDEIDDVLEENAEDFVRAYVQKGGE
modifications: biotinylated with EZLink Sulfo-NHS-LC-Biotin (sites not given)

Experiments:
Test in all cases: BLI
[1] = molecular target: Pup^E (prokaryotic ubiquitin-like protein Pup with its C-terminal glutamine converted to glutamate), biotinylated (M. tuberculosis) (UniProt P9WHN5)
[2] = molecular target: T1, M. tuberculosis PafA (Pup ligase), wild type (M. tuberculosis H37Rv, UniProt P9WNU7 1-452)
T1 sequence: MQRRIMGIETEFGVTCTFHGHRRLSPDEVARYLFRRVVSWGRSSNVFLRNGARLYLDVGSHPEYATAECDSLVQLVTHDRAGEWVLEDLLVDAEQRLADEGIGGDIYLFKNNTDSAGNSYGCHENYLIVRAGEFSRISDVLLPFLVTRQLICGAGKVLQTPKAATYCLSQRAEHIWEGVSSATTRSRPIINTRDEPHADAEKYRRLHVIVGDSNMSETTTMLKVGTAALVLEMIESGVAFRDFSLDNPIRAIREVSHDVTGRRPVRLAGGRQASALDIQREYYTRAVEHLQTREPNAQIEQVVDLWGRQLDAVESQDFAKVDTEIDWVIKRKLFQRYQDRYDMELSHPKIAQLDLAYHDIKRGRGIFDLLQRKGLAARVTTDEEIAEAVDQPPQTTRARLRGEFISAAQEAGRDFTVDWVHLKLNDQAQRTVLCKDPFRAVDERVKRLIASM

[3] = molecular target: T2, M. tuberculosis PafA S119A (M. tuberculosis H37Rv, UniProt P9WNU7 1-452, S119A)
T2 sequence: T1 sequence with S119A

Row | Molecule | fold KD against WT PafA [1] [fold] | binding result [2] | binding result [3]
1 | M. tuberculosis PafA pre-incubated with AEBSF (AEBSF covalently bound at S119) (from UniProt P9WNU7 1-452) (enzyme) | 2 |  | 
2 | B1 |  | binds | binds
